Results published in PMC9352680, “A comprehensive thermodynamic model for RNA binding by the Saccharomyces cerevisiae Pumilio protein PUF4”.

T1: PUF4 RNA-binding domain (Saccharomyces cerevisiae, UniProt P25339 537-888)
T1 sequence: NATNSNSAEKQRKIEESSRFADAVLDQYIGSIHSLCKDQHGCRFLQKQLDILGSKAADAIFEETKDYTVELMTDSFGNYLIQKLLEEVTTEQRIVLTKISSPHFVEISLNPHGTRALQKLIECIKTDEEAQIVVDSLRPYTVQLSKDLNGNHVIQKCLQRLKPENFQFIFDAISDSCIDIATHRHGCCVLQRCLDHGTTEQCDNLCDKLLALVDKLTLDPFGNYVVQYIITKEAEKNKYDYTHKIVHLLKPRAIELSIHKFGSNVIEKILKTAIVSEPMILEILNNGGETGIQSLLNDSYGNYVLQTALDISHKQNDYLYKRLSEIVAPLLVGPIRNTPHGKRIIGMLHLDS


Each binder was assayed against T1, PUF4 RNA-binding domain (assay: Mg; RNA-MaP; 20 mM Na-HEPES pH 7.4, 30 mM KOAc, 0.75 mM MgCl2, 0.1% Tween-20, 5% glycerol, 0.1 mg/mL BSA, 2 mM DTT; 25 C; 0.0125-409.6 nM protein). Conditions: tags: N-His6-TEV cleaved; C-SNAP kept, Cy3B-labelled; label: tethered on chip by stalled RNA polymerase.

Binder | Kd
UCUCUUCCACACUAUUAAAUCUCUU (ssRNA) [Id_ii_S1_P4E.4_K4.3_C4.2_[T-1C]_H4.3_A4.1_F4.1_T4.2_[G10A]_[T11A]] | > 2.3 µM
UCUCUUAAACACUAUUAGCUCUCUU (ssRNA) [Id_ii_S1_P4E.4_K4.3_C4.2_[C-2A]_[T-1A]_H4.3_A4.1_F4.1_T4.2_[T11C]] | > 2.3 µM
UCUCUUAUACACUAUUACUUCUCUU (ssRNA) [Id_ii_S1_P4E.4_K4.3_C4.2_[C-2A]_H4.3_A4.1_F4.1_T4.2_[G10C]] | 0.0311 µM
UCUCUUCCACACUAUUAGCUCUCUU (ssRNA) [Id_ii_S1_P4E.4_K4.3_C4.2_[T-1C]_H4.3_A4.1_F4.1_T4.2_[T11C]] | > 2.3 µM
UCUCUUCAACACUAUUAUAUCUCUU (ssRNA) [Id_ii_S1_P4E.4_K4.3_C4.2_[T-1A]_H4.3_A4.1_F4.1_T4.2_[G10T]_[T11A]] | > 2.3 µM
UCUCUUCCACACUAUUAUAUCUCUU (ssRNA) [Id_ii_S1_P4E.4_K4.3_C4.2_[T-1C]_H4.3_A4.1_F4.1_T4.2_[G10T]_[T11A]] | > 2.3 µM
UCUCUUGUUGUAUUAUUAAAUCUCUU (ssRNA) [Id_ii_S1_P5E.2_K5.1_C5.2_[C-2G]_H5.1_A5.1_F5.1_T5.2_[T11A]] | 0.0117 µM
UCUCUUCUACACUAUUAUUUCUCUU (ssRNA) [Id_ii_S1_P4E.4_K4.3_C4.2_H4.3_A4.1_F4.1_T4.2_[G10T]] | > 2.3 µM
UCUCUUCCACACUAUUACCUCUCUU (ssRNA) [Id_ii_S1_P4E.4_K4.3_C4.2_[T-1C]_H4.3_A4.1_F4.1_T4.2_[G10C]_[T11C]] | > 2.3 µM
UCUCUUUGUGUAUUAUUAGUUCUCUU (ssRNA) [Id_ii_S1_P5E.2_K5.1_C5.2_[C-2T]_[T-1G]_H5.1_A5.1_F5.1_T5.2_[T11G]_[A12T]] | 0.00243 µM
UCUCUUCCACACUAUUAGAUCUCUU (ssRNA) [Id_ii_S1_P4E.4_K4.3_C4.2_[T-1C]_H4.3_A4.1_F4.1_T4.2_[T11A]] | > 2.3 µM
UCUCUUCCACACUAUUAGUUCUCUU (ssRNA) [Id_ii_S1_P4E.4_K4.3_C4.2_[T-1C]_H4.3_A4.1_F4.1_T4.2] | > 2.3 µM
UCUCUUGCUGUAUUAUUAUCUCUCUU (ssRNA) [Id_ii_S1_P5E.2_K5.1_C5.2_[C-2G]_[T-1C]_H5.1_A5.1_F5.1_T5.2_[A12C]] | 0.0117 µM
UCUCUUAUACACUAUUAUUUCUCUU (ssRNA) [Id_ii_S1_P4E.4_K4.3_C4.2_[C-2A]_H4.3_A4.1_F4.1_T4.2_[G10T]] | 0.0352 µM
UCUCUUGCUGUAUUAUUAACUCUCUU (ssRNA) [Id_ii_S1_P5E.2_K5.1_C5.2_[C-2G]_[T-1C]_H5.1_A5.1_F5.1_T5.2_[T11A]_[A12C]] | 0.0152 µM
UCUCUUCAACACUAUUACGUCUCUU (ssRNA) [Id_ii_S1_P4E.4_K4.3_C4.2_[T-1A]_H4.3_A4.1_F4.1_T4.2_[G10C]_[T11G]] | > 2.3 µM
UCUCUUCAACACUAUUAAUUCUCUU (ssRNA) [Id_ii_S1_P4E.4_K4.3_C4.2_[T-1A]_H4.3_A4.1_F4.1_T4.2_[G10A]] | > 2.3 µM
UCUCUUUGUGUAUUAUUAUUUCUCUU (ssRNA) [Id_ii_S1_P5E.2_K5.1_C5.2_[C-2T]_[T-1G]_H5.1_A5.1_F5.1_T5.2_[A12T]] | 0.00395 µM
UCUCUUUGUGUAUUAUUAACUCUCUU (ssRNA) [Id_ii_S1_P5E.2_K5.1_C5.2_[C-2T]_[T-1G]_H5.1_A5.1_F5.1_T5.2_[T11A]_[A12C]] | 0.00386 µM

Binder | Kd
UCUCUUUGUACCUUAUCUCUU (ssRNA) [Ib_S1_P4E.1_K4.1_C4.1_H4.1_A4.1_[T5C]_[A6C]_F4.1_T4.1] | 0.00361 µM
UCUCUUAUACACUAUUAGCUCUCUU (ssRNA) [Id_ii_S1_P4E.4_K4.3_C4.2_[C-2A]_H4.3_A4.1_F4.1_T4.2_[T11C]] | 0.0495 µM
UCUCUUUGUACACUAUCUCUU (ssRNA) [Ib_S1_P4E.1_K4.1_C4.1_H4.1_A4.1_[T5C]_[T7C]_F4.1_T4.1] | 0.000824 µM
UCUCUUAAACACUAUUAAAUCUCUU (ssRNA) [Id_ii_S1_P4E.4_K4.3_C4.2_[C-2A]_[T-1A]_H4.3_A4.1_F4.1_T4.2_[G10A]_[T11A]] | > 2.3 µM
UCUCUUUGUAUUAAUAUCUCUU (ssRNA) [Ia_S1_P5E.1_K5.1_C5.1_H5.1_A5.1_F5.1_[T8A]_T5.1] | 0.0094 µM
UCUCUUCUACACUAUUAUCUCUCUU (ssRNA) [Id_ii_S1_P4E.4_K4.3_C4.2_H4.3_A4.1_F4.1_T4.2_[G10T]_[T11C]] | 1.7 µM
UCUCUUCUACACUAUUAUAUCUCUU (ssRNA) [Id_ii_S1_P4E.4_K4.3_C4.2_H4.3_A4.1_F4.1_T4.2_[G10T]_[T11A]] | 0.965 µM
UCUCUUGUUGUAUUAUUAUUUCUCUU (ssRNA) [Id_ii_S1_P5E.2_K5.1_C5.2_[C-2G]_H5.1_A5.1_F5.1_T5.2_[A12T]] | 0.00628 µM
UCUCUUUGUGUAUUAUUAAUUCUCUU (ssRNA) [Id_ii_S1_P5E.2_K5.1_C5.2_[C-2T]_[T-1G]_H5.1_A5.1_F5.1_T5.2_[T11A]_[A12T]] | 0.00468 µM
UCUCUUAUACACUAUUAGUUCUCUU (ssRNA) [Id_ii_S1_P4E.4_K4.3_C4.2_[C-2A]_H4.3_A4.1_F4.1_T4.2] | 0.0428 µM
UCUCUUAUACACUAUUAAUUCUCUU (ssRNA) [Id_ii_S1_P4E.4_K4.3_C4.2_[C-2A]_H4.3_A4.1_F4.1_T4.2_[G10A]] | 0.0352 µM
UCUCUUCCACACUAUUAACUCUCUU (ssRNA) [Id_ii_S1_P4E.4_K4.3_C4.2_[T-1C]_H4.3_A4.1_F4.1_T4.2_[G10A]_[T11C]] | > 2.3 µM
UCUCUUCGACACUAUUACCUCUCUU (ssRNA) [Id_ii_S1_P4E.4_K4.3_C4.2_[T-1G]_H4.3_A4.1_F4.1_T4.2_[G10C]_[T11C]] | > 2.3 µM
UCUCUUCAACACUAUUAGUUCUCUU (ssRNA) [Id_ii_S1_P4E.4_K4.3_C4.2_[T-1A]_H4.3_A4.1_F4.1_T4.2] | > 2.3 µM
UCUCUUUGUAAUUUAUCUCUU (ssRNA) [Ic_S1_P4E.1_K4.1_C4.1_H4.1_A4.1_[T5A]_[A6T]_F4.1_T4.1] | 0.00377 µM
UCUCUUCCACACUAUUACGUCUCUU (ssRNA) [Id_ii_S1_P4E.4_K4.3_C4.2_[T-1C]_H4.3_A4.1_F4.1_T4.2_[G10C]_[T11G]] | > 2.3 µM
UCUCUUCGACACUAUUACUUCUCUU (ssRNA) [Id_ii_S1_P4E.4_K4.3_C4.2_[T-1G]_H4.3_A4.1_F4.1_T4.2_[G10C]] | > 2.3 µM
UCUCUUCGACACUAUUAACUCUCUU (ssRNA) [Id_ii_S1_P4E.4_K4.3_C4.2_[T-1G]_H4.3_A4.1_F4.1_T4.2_[G10A]_[T11C]] | > 2.3 µM
UCUCUUGCUGUAUUAUUAUUUCUCUU (ssRNA) [Id_ii_S1_P5E.2_K5.1_C5.2_[C-2G]_[T-1C]_H5.1_A5.1_F5.1_T5.2_[A12T]] | 0.0105 µM

Binder | Kd
UCUCUUUGUACUUUAUCUCUU (ssRNA) [Ib_S1_P4E.1_K4.1_C4.1_H4.1_A4.1_[T5C]_[A6T]_F4.1_T4.1] | 0.00273 µM
UCUCUUCCACACUAUUACUUCUCUU (ssRNA) [Id_ii_S1_P4E.4_K4.3_C4.2_[T-1C]_H4.3_A4.1_F4.1_T4.2_[G10C]] | > 2.3 µM
UCUCUUUGUGUAUUAUUAUCUCUCUU (ssRNA) [Id_ii_S1_P5E.2_K5.1_C5.2_[C-2T]_[T-1G]_H5.1_A5.1_F5.1_T5.2_[A12C]] | 0.00372 µM
UCUCUUAUACACUAUUACCUCUCUU (ssRNA) [Id_ii_S1_P4E.4_K4.3_C4.2_[C-2A]_H4.3_A4.1_F4.1_T4.2_[G10C]_[T11C]] | 0.0264 µM
UCUCUUAUACACUAUUACAUCUCUU (ssRNA) [Id_ii_S1_P4E.4_K4.3_C4.2_[C-2A]_H4.3_A4.1_F4.1_T4.2_[G10C]_[T11A]] | 0.0296 µM
UCUCUUAUACACUAUUAUAUCUCUU (ssRNA) [Id_ii_S1_P4E.4_K4.3_C4.2_[C-2A]_H4.3_A4.1_F4.1_T4.2_[G10T]_[T11A]] | 0.0311 µM
UCUCUUGCUGUAUUAUUAAUUCUCUU (ssRNA) [Id_ii_S1_P5E.2_K5.1_C5.2_[C-2G]_[T-1C]_H5.1_A5.1_F5.1_T5.2_[T11A]_[A12T]] | 0.0216 µM
UCUCUUCCACACUAUUACAUCUCUU (ssRNA) [Id_ii_S1_P4E.4_K4.3_C4.2_[T-1C]_H4.3_A4.1_F4.1_T4.2_[G10C]_[T11A]] | > 2.3 µM
UCUCUUAUACACUAUUAAAUCUCUU (ssRNA) [Id_ii_S1_P4E.4_K4.3_C4.2_[C-2A]_H4.3_A4.1_F4.1_T4.2_[G10A]_[T11A]] | 0.0243 µM
UCUCUUUGUAACUUAUCUCUU (ssRNA) [Ib_S1_P4E.1_K4.1_C4.1_H4.1_A4.1_[T5A]_[A6C]_F4.1_T4.1] | 0.00833 µM
UCUCUUCGACACUAUUACAUCUCUU (ssRNA) [Id_ii_S1_P4E.4_K4.3_C4.2_[T-1G]_H4.3_A4.1_F4.1_T4.2_[G10C]_[T11A]] | > 2.3 µM
UCUCUUAUACACUAUUACGUCUCUU (ssRNA) [Id_ii_S1_P4E.4_K4.3_C4.2_[C-2A]_H4.3_A4.1_F4.1_T4.2_[G10C]_[T11G]] | 0.0321 µM
UCUCUUAUACACUAUUAACUCUCUU (ssRNA) [Id_ii_S1_P4E.4_K4.3_C4.2_[C-2A]_H4.3_A4.1_F4.1_T4.2_[G10A]_[T11C]] | 0.0375 µM
UCUCUUAUACACUAUUAUCUCUCUU (ssRNA) [Id_ii_S1_P4E.4_K4.3_C4.2_[C-2A]_H4.3_A4.1_F4.1_T4.2_[G10T]_[T11C]] | 0.0218 µM
UCUCUUAAACACUAUUAUUUCUCUU (ssRNA) [Id_ii_S1_P4E.4_K4.3_C4.2_[C-2A]_[T-1A]_H4.3_A4.1_F4.1_T4.2_[G10T]] | > 2.3 µM
UCUCUUGUUGUAUUAUUAUCUCUCUU (ssRNA) [Id_ii_S1_P5E.2_K5.1_C5.2_[C-2G]_H5.1_A5.1_F5.1_T5.2_[A12C]] | 0.00674 µM
UCUCUUCGACACUAUUAUCUCUCUU (ssRNA) [Id_ii_S1_P4E.4_K4.3_C4.2_[T-1G]_H4.3_A4.1_F4.1_T4.2_[G10T]_[T11C]] | > 2.3 µM
UCUCUUGUUGUAUUAUUAAUUCUCUU (ssRNA) [Id_ii_S1_P5E.2_K5.1_C5.2_[C-2G]_H5.1_A5.1_F5.1_T5.2_[T11A]_[A12T]] | 0.00979 µM
UCUCUUCAACACUAUUACUUCUCUU (ssRNA) [Id_ii_S1_P4E.4_K4.3_C4.2_[T-1A]_H4.3_A4.1_F4.1_T4.2_[G10C]] | > 2.3 µM
